Test results published in the Human Domainome abundance scans (Beltran et al. 2025).

B1: Gamma-crystallin D, residues 90 to 170; numbered along this chain, P07320 (parent)
chain: IRLYEREDYRGQMIEFTEDCSCLQDRFRFNEIHSLNVLEGSWVLYELSNYRGRQYLLMPGDYRRYQDWGATNARVGSLRRV

Variants of: B1
Assay: abundance fitness (aPCA) (normalised: wild type 0, dead -1); higher = more abundant; growth selection in yeast, the domain comes from the species named
Settings: Homo sapiens

Abundance fitness of substitutions, site by site:
C22: L -0.049; Q -0.023; W -0.107; M 0.091; S 0.015; E 0.056; H -0.07; K -0.134; G 0.019; A 0.002; P -0.104; D 0.089; V -0.08; R -0.044; Y -0.009; F 0.113; N -0.149
S34: H -0.771; G -0.099; I -0.84; V -1.08; M -0.689; R -0.766; C -0.014; W -0.828; P -1.03; A 0.112; E -0.853; D -0.936; T -0.924; Y -0.893
R26: C 0.091; S 0.05; E 0.047; G -0.018; M -0.007; V -0.006; F -0.292; W 0.061; Q 0.032; P 0.071; A -0.027; T -0.048; N 0.039; D -0.053; Y 0.095; H 0.008
N36: P -1.23; Q 0.051; H -0.058; C -0.054; V -0.098; Y -0.086; G -0.087; R 0.006; A 0.045; S 0.135; W 0.076; F 0.114; E 0.023; T -0.153; D -0.051; K -0.023; I -0.05; M -0.112
E31: T 0.048; D -0.096; W 0.078; G 0.035; I 0.139; R 0.004; L 0.054; H 0.059; N 0.005; Q 0.116; K -0.004; F -0.109; M 0.03; V -0.105; P 0.152; S -0.123; C -0.192
I32: T -0.037; R -0.062; Y 0.325; N -0.101; F -0.001; M 0.02; Q -0.251; P -0.003; E -0.201; K -0.235; L 0.119; W 0.067; S -0.007; V 0.127; C 0.032; G 0.063; A -0.11; D -0.346
R28: S 0.024; K 0.139; M 0.065; Y -0.004; D 0.128; C -0.047; Q 0.1; F -0.203; T -0.002; P -0.023; I 0.029; G -0.031; E -0.177; L -0.043; H -0.32; A -0.005
D25: P 0.073; S -0.127; R -0.045; T -0.168; M -0.149; A 0.005; L 0.06; K 0.103; G 0.041; I -0.052; Y -0.17; W -0.087; E 0.088; C -0.308; V -0.051; F -0.036; N -0.197
E18: P -0.584; L 0.001; Q 0.054; N 0.11; C 0.05; H 0.027; R 0.048; V -0.004; A -0.018; M -0.005; I -0.074; S 0.04; T -0.035; D -0.08; W -0.142; G -0.088
L35: Q -0.01; S -0.035; V 0.048; N -0.156; H -0.535; R -0.863; A 0.024; E -1.08; G 0.035; P -1; W -0.552; F 0.148; I 0.231; M -0.036; T -0.034; Y -0.249
H33: F -0.023; M 0.05; T -0.065; S 0.118; R -0.005; A 0.039; L -0.024; V 0.04; N -0.082; C -0.01; K -0.057; I 0.07; G 0.079; E 0.078; W 0.02; Q 0.04; D 0.011; P 0.062
S21: Q -0.246; D 0.044; P -0.215; T -0.047; K -0.045; Y 0.069; F 0.017; E 0.069; H -0.088; R -0.03; C -0.054; G -0.05; A -0.023; W -0.099; N -0.183; M -0.171; I 0.004; V -0.044
N30: Y -0.1; T 0.038; L -0.122; E 0.092; W -0.036; G 0.054; H -0.081; A 0.028; D 0.018; V 0.143; R 0.024; I 0.187; K 0.107; M -0.051
Q24: C -0.025; M 0.167; N -0.022; K 0.068; A -0.021; D -0.051; I -0.038; S -0.008; Y -0.045; W -0.073; T -0.08; P 0.02; V -0.086; R 0.013; E 0.029; H 0.08; G 0.01
F27: W -0.103; P 0.103; S 0.011; Y -0.048; G -0.106; C -0.031; T -0.09; A -0.056; E 0.065; R -0.126; I -0.035; N -0.086; V -0.092; H -0.343; L -0.105; K -0.009; D 0.012; M -0.129
T17: Y 0.004; V 0.005; S -0.022; W -0.068
C20: K -0.096; L -0.01; M -0.04; R 0.069; I -0.047; V -0.061; E 0.135; S -0.011; H -0.104; G 0.052; Y 0.3; N 0.042; T 0.015; P -0.486; D 0.108; W 0.056
D19: C -0.065; W -0.108; F 0.004; S -0.115; T 0.039; M -0.06; K -0.144; P -0.003; L -0.169; H -0.033; R -0.129; A -0.116; V -0.087; E 0.035; Q 0.041; Y -0.155; I -0.249; N -0.058
L23: H -0.833; F -0.027; Q -0.217; V -0.043; W -0.215; S 0.14; G -0.24; C -0.023; A 0.086; K -0.033; R -0.332; N -0.055; T 0.004; P -0.029; I -0.098
F29: Q 0.041; A 0.008; T -0.135; H -0.066; I -0.112; N -0.064; S 0.093; L -0.012; E 0.05; C 0.036; G -0.007; P 0.069; Y 0.161; R 0.117; D 0.008; W 0.031; V -0.072
V37: H -0.086; Q -0.306; M -0.338; F 0.159; A 0.01; I 0.091; D 0.165; G -0.218; S 0.137; L 0.096; C -0.126; K -0.7; P 0.153; E -1.11
